“Also recorded” adds a separate entry of the source. Bridges are numbered along the chain shown (N, C = ends). Where no end group is shown, it is not given here. [ ]: non-standard residue; d: D form. S5 = C=CCCC[C@](C)(N)C(=O)O; Sar = CNCC(=O)O
Experiments:
[1] = biological target: T1, MPO (Homo sapiens, UniProt P05164); test: MPO activity assay; format: biochemical; details: compared to parent peptide
T1 construct: purchased Lee BioSolutions (Maryland Heights, MO)
Description: The MPO activity assay was performed as previously described. Briefly, peptides were diluted to 12 mg/ml and serially titrated in a 96 well plate at a volume of 0.02 ml. MPO was diluted to 20 μg/ml and 0.02 ml was added to the titrated peptides. TMB (3,30,5,50-tetramethylbenzidine) (0.1 ml) was added to each well for 2 minutes, followed by 0.1 ml of 2.5 N H2SO4 for another 2 minutes, and then read on a 96 well plate reader (BioTek) at 450 nm.
To ascertain the inhibition of MPO activity by the various peptides, a range of concentrations of the stapled peptides and D-amino acid variants were tested (FIG. 3A-3B) and half-maximal activity levels were calculated from the dose-response curves (FIG. 6A-6C, respectively).

[2] = tested on: purified human Pan T-cells; test: T-cell exhaustion protocol (repeated CD3/CD28 Dynabead stimulation); format: cell-based; details: ELISA, listed as RLS-0154
Description: Purified human pan-T-cells were subject to stimulation with Dynabeads every 48 hours over the period of 8 days with cells also receiving PIC1 peptides (2 mg/ml) at each stimulation. Cells not receiving Dynabeads were run in parallel to assess background levels of Caspase 3/7 signal. At the eighth day, cells were harvested, and the levels of Caspase 3/7 determined by ELISA.
Purified human pan-T-cells were subject to stimulation with Dynabeads every 48 hours over the period of 8 days with cells also receiving PIC1 peptides (2 mg/ml) at each stimulation. Cell supernatants were collected at each stimulation and levels of IL-2 and IFN-gamma assayed by ELISA.
T-cell exhaustion is a form of T-cell dysfunction that occurs in cancer. It is generally defined by poor effector function, reduction in cytokine release (e.g., IL-2, TNF-alpha, IFN-gamma), sustained expression of inhibitory receptors (e.g., PD-1, LAG-3, CD244, CD160) with the progressive loss of effector function due to overstimulation. Exhaustion can prevent optimal control of tumor growth. Exhausted T cells are prevalent in the tumor microenvironment (TME) and can lead to T-cell apoptosis. T-cell exhaustion is reversible and pharmaceutical inhibition of T-cell exhaustion has been considered a promising strategy by many cancer researchers. To ascertain if PIC1 peptides could reverse T-cell exhaustion and increase T cell viability and effector function, a T-cell exhaustion protocol was developed. To induce T-cell exhaustion, purified human Pan T-cells were stimulated with T-Activator CD3/CD28 Dynabeads and cells were washed and re-stimulated every 48 hours. PIC1 peptides were added to the cells after each stimulation with Dynabeads. After three to four stimulations, cells were harvested for readouts which consisted of assessing T-cell apoptosis by measuring Caspase 3/7 levels and production of cytokines IL-2 and IFN-gamma, which are indicative of T-cell functionality. […] To further evaluate if PIC1 peptides could restore T-cell functionality in cells that have undergone the exhaustion protocol, the inventors next assessed production of cytokines IL-2 and IFN-gamma. Supernatants from the cells after each stimulation was collected and the cytokines measured by ELISA. […] The lower level of IFN-gamma signal was consistently seen in this assay.

[3] = biological target: T2, VEGF (Homo sapiens, UniProt P15692); test: VEGF Bioassay (Promega), VEGF signaling via VEGFR-2 (KDR); format: cell-based
T2 construct: Promega (bioassay)
T2 sequence (P15692 27-191 isoform P15692-4): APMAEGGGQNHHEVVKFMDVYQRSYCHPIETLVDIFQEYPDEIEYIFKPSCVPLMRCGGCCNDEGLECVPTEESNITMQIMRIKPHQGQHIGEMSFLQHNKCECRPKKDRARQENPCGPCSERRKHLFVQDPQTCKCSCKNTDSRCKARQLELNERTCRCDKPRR
From the text: Luminescence was detected in luminometer plate reader.
Angiogenesis, or the formation of new blood vessels from the established vasculature, is an essential element in tumor growth and metastasis formation. Inhibiting tumor angiogenesis is considered a major therapeutic strategy in oncology. […] The bioluminescent signal is detected in a luminometer.

[4] = biological target: T3, CTLA-4 (Homo sapiens, UniProt P16410); test: CTLA-4 Blockade Bioassay (Promega); format: cell-based; design: host or cells: Jurkat T cells (CTLA-4 effector cells) co-cultured with aAPC/Raji cells; details: increasing concentrations; listed as RLS-0154
T3 sequence (P16410 36-223): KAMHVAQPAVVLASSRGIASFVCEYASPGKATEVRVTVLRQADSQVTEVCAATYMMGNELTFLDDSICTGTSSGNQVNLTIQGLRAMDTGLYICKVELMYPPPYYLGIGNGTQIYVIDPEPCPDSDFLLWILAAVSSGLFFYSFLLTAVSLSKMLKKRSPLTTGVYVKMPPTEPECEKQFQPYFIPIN
Description: CTLA-4 effector cells were incubated with aAPC/Raji Cells in the absence or presence of increasing concentrations of anti-CTLA-4 antibody (positive control), RLS-0122, RLS-0150, RLS-0154, RLS-0164 and RLS-0168 and RLS-0088 (negative control). Luminescence was detected in luminometer plate reader. The drop-off in signal with the test peptides at high concentrations is due to cell death as a result of peptide buffer effects on the cells.
To assess if PIC1 peptides could block CTLA-4 inhibitory activity in a cell-based assay, select peptides were screened in the CTLA-4 Blockade Bioassay (Promega). This bioluminescent cell-based assay can be used to measure the potency and stability of molecules targeting CTLA-4 and consists of two genetically engineered cell lines: CTLA-4 effector cells: Jurkat T cells expressing human CTLA-4 and a luciferase reporter driven by a native promoter which responds to TCR/CD28 activation and aAPC/Raji Cells: Raji cells expressing an engineered cell surface protein designed to activate cognate TCRs in an antigen-independent manner and endogenously expressing CTLA-4 ligands CD80 and CD86. When the two cell types are co-cultured, CTLA-4 competes with CD28 for their shared ligands, CD80 and CD86 and thus inhibits CD28 pathway activation and promoter-mediated luminescence. Addition of a molecule that blocks the interaction of CTLA-4 with its ligands CD80 and CD86 results in promoter-mediated luminescence.

[5] = tested on: antibody-initiated complement activation (lysis of AB human red blood cells by type O serum); test: ABO incompatibility hemolytic complement assay (CH50-type); format: cell-based; details: peptides 0.8 mg/ml (~0.5 mM); compared to parent peptide
Description: FIG. 1A-1B show PIC1 peptides' inhibition of complement activation in an ABO incompatibility assay. […] Inhibition of ABO incompatibility hemolysis in a CH50-type assay. Peptides are at a final concentration of 0.5 mM. Values are represented as a percent of the positive control, which consists of human 0 sera and AB red blood cells in GVBS^++ buffer. Data are the means of n=3 independent experiments±SEM.
For hemolytic complement assays, human red blood cells (RBCs) from type AB donors were purified, washed, and standardized to 1.0×10^9 cells/ml, as previously described. Human sera from type 0 donors at a 15% final concentration was combined with 0.5 mM of the peptides and the volume was brought up to 0.2 ml with GVBS^++ and 5.0×10^7 RBCs. The samples were incubated for 1 hour at 37° C. and then spun at 3,000 rpm for 5 minutes and the supernatant was collected and read at 412 nm. Values are represented as a percent of the positive control, which consists of human 0 sera and AB red blood cells in GVBS^++ buffer.
To assess the extent to which the peptide variants inhibit antibody-initiated complement activation, an ABO incompatibility ex vivo assay was utilized in which purified erythrocytes from a ‘type AB+’ donor are incubated with sera from a ‘type 0’ subject containing anti-A and anti-B antibodies. Peptides were tested at a concentration of 0.8 mg/ml (˜0.5 mM).

[6] = biological target: T4, C1q (Homo sapiens, UniProt P02745+P02746+P02747); test: C1q binding ELISA-type assay; details: compared to parent peptide
T4 construct: purchased Complement Technology (Tyler, TX)
Description: The C1q binding assay was performed as previously described. Briefly, an Immunlon-2 HB ELISA plate was coated with 1 μg/ml C1q in bicarbonate buffer overnight at 4° C. The plates were washed with PBS-T (phosphate buffered saline+0.1% Tween) and then blocked with 1% gelatin/PBS for 2 hours at room temperature. After washing, the plates were incubated with the peptides starting at 2.5 mg/ml and then serially diluted in 1% gelatin/PBS for 1 hour at room temperature followed by washing. Plates were then probed with rabbit antibody raised against the lead peptide […] (SEQ ID NO: 2) that lacked PEGylation at 1:1000 in 1% gelatin/PBS for 1 hour at room temperature followed by a goat anti-rabbit HRP (Sigma Aldrich, St Louis, MO) at 1:1,000 in 1% gelatin/PBS for 1 hour at room temperature with a washing step in between. After addition of TMB substrate solution to the wells, the reaction was stopped using 1N H2SO4, and the plate read on a BioTek Synergy HT plate reader at 450 nm.
The astrovirus capsid protein and the PIC1 molecules derived from it inhibit classical complement pathway activation by binding to the pattern recognition molecule C1q. The inventors next tested peptide variant binding to C1q in an ELISA-type assay in which C1q is used as the capture substrate and bound peptide detected with a rabbit polyclonal antibody against the peptide portion of PA-dPEG24 ([…]-d24; SEQ ID NO: 3). Binding curves were derived for the stapled and D-amino acid peptides based on the PA-I8Sar and PA-C9Sar (FIG. 5A-5C) backbone, from which half-maximal binding concentrations were calculated (FIGS. 2A and B, respectively). […] For the peptides based on the PA-C9Sar backbone, C1q was bound to a greater degree than the parent peptide (FIG. 2B).

[7] = Total Antioxidant Capacity (TAC) assay; details: highest peptide concentration 1.5 mM; compared to parent peptide
Description: As previously reported, the TAC (Total Antioxidant Capacity) Assay (Cell Biolabs, Inc, San Diego, CA) was used to measure the antioxidant capacity of the PIC1 variants based on the reduction of copper (II) to copper (I). The kit protocol was performed per the manufacturer's recommendations.
The antioxidant properties for the PIC1 variants were evaluated in a Total Antioxidant Capacity (TAC) assay, as previously reported. Total antioxidant activity over a range of peptide concentrations were determined for the stapled and the D-amino acid peptides based on the PA-I8Sar and PA-C9Sar backbones (FIG. 4A-4B), with the activity of the highest peptide concentration reported (1.5 mM) (FIG. 5A-5C).

[8] = biological target: T5, PD-1 binding to PD-L1 (Homo sapiens, UniProt Q9NZQ7); test: PD-1:PD-L1 inhibitor screening ELISA; details: FIG. 8
T5 construct: purchased
Description: PIC1 peptides were allowed to bind to immobilized PD-L1 on the surface of the plate. Biotinylated PD-1 was then added and bound PD-1 detected by streptavidin-HRP reagent followed by TMB as the substrate for the colorimetric assay.
This inhibitor screening ELISA pair was designed to facilitate the identification and characterization of new PD-1 pathway inhibitors. In this assay, biotinylated human PD-1 was bound to immobilized human PD-L1 and a colorimetric sandwich ELISA platform was used. Plates were coated with human PD-L1 followed by incubation with various PIC1 peptides. Human PD-1-Biotin was then allowed to bind the coated human PD-L1 followed by addition of streptavidin-HRP. TMB was then added as the colorimetric HRP substrate and the wells of the plate analyzed in a plate reader at an absorbance of 450 nm.
The immune checkpoint pathway is an area of significant interest in cancer research. PD-1 is one of the best characterized checkpoint proteins. The binding between PD-1 and its ligand PD-L1 suppresses T-cell activation and allows cancer cells to escape from body's immune surveillance. Therefore, the pharmaceutical inhibition of PD-1 or its ligand has been considered a promising strategy by many cancer researchers. To ascertain if these PIC1 derivatives could inhibit PD-1 interaction with PD-L1, a commercial ELISA kit was utilized. […]

[9] = without PEGylation; as described in U.S. Pat. No. 10,005,818; cited from earlier work
[10] = peptides 2 mg/ml, stimulation 2

T1 sequence (P05164 279-745 limits assumed): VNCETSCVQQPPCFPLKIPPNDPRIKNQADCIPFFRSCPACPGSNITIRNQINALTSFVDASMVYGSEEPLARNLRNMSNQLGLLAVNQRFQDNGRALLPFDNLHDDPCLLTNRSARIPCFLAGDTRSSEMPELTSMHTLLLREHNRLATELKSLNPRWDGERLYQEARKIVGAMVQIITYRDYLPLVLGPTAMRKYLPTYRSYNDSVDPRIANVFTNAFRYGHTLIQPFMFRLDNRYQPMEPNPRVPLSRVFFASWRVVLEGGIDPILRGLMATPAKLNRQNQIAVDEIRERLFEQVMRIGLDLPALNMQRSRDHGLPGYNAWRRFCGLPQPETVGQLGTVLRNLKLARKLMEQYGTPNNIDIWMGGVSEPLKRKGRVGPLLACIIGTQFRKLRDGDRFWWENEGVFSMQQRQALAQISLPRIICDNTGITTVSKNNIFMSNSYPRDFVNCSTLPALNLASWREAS
T1 sequence (P05164 165-273 limits assumed): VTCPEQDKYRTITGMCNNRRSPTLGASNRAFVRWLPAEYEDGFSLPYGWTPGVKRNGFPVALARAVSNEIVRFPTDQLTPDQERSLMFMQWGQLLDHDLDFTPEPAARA
T4 sequence (P02745 23-245): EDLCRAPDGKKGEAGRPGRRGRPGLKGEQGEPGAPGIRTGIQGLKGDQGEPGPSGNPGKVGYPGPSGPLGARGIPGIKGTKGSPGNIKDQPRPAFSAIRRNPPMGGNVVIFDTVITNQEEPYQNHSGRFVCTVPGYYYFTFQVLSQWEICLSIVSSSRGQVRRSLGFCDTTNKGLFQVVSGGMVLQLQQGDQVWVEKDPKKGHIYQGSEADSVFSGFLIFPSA
T4 sequence (P02746 28-253): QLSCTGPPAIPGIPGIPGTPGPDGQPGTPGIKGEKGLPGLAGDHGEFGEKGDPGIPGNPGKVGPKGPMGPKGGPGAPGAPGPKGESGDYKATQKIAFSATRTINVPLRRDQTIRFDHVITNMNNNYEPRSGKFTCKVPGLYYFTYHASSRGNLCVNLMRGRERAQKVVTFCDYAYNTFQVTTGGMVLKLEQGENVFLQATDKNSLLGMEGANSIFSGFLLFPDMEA
T4 sequence (P02747 29-245): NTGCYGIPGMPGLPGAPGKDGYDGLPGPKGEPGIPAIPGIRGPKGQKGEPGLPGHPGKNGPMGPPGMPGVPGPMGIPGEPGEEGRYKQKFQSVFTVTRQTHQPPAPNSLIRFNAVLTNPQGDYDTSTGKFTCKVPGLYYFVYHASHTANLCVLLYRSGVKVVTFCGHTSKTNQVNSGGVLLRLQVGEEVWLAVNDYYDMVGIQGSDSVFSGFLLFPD
T5 sequence (Q9NZQ7 19-238 limits assumed): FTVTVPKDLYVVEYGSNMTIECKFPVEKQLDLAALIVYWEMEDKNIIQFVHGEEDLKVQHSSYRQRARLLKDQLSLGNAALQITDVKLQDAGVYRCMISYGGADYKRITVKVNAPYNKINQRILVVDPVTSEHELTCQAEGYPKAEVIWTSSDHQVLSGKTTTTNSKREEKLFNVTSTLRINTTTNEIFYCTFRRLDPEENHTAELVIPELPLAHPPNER

In the case of “IALILES5I(Sar)CS5ERAA (IALILE[S5]I[Sar]C[S5]ERAA; staple 7-11; not fully specified; printed as IALILES5I(Sar)CS5ERAA) [PA-0154]”, the “inhibition of MPO activity (half-maximal values), in words” value [1] is reported as “decreased MPO inhibition”, the “Caspase 3/7 levels, in words” value ([2]; peptides 2 mg/ml at each stimulation, day 8) is reported as “increase in Caspase 3/7 levels; also recorded: did not display reduction of Caspase levels” and the “IFN-gamma levels in cell supernatants, in words” value [2, 10] is reported as “not and increased levels”. For the same substance, the “IL-2 levels in cell supernatants, in words” value [2, 10] was “detectable IL-2 at stimulation 2; also recorded: increased levels”, the “inhibition of VEGF signaling via VEGFR-2 (luminescence), in words” value [3] was “dose-dependently reduced luminescence” and the “inhibition of CTLA-4 mediated cell signaling (increase in luminescence), in words” value [4] was “showed inhibitory activity; also recorded: able to inhibit CTLA-4 mediated cell signaling”.

With “IAdLILEP(Sar)CS5QERS5A (H-IA[dL]ILEP[Sar]C[S5]QER[S5]A-OH; staple 10-14; not fully specified) [PA-0142]” the “inhibition of ABO incompatible hemolysis (complement inhibition), in words” value [5] was “similar”, the “binding to C1q (binding curves, half-maximal binding), in words” value [6] was “did not bind C1q” and the “total antioxidant capacity, in words” value [7] was “decreased activity compared to the parent peptide”.

With “IALILEPICCQERAA-PEG24 (C-terminal PEG24) [PA-0071, PIC1 peptide with C-terminal monodisperse 24-mer PEGylated moiety]” the “inhibition of binding of PD-1 to PD-L1, in words” value [8] was “did not inhibit”.

In the case of “IALILEPI(Sar)CQERAA (IALILEPIXCQERAA; sarcosine at position 9; MOD_RES (9)..(9) Sarcosine) [PA-0089, parent peptide, sarcosine at position 9 of PIC1]”, the solubility in water [9] is given as “water soluble without PEGylation”.

For “IS5LILS5PI(Sar)CQERAA (I[S5]LIL[S5]PI[Sar]CQERAA; staple 2-6; not fully specified; printed as IS5LILS5PI(Sar)CQERAA) [PA-0152]”, the “binding to C1q (binding curves, half-maximal binding), in words” value [6] was “did not titrate” and the “inhibition of MPO activity (half-maximal values), in words” value [1] was “decreased MPO inhibition”.

— patent publication US20230303623A1, “PEPTIDES AND METHODS OF USE” (REALTA LIFE SCIENCES, INC., priority 2020, published 2023)
